Test results reported in US20260151494A1 (ARO BIOTHERAPEUTICS, published 2026).

Tests used:
[1] = molecular target: T1, apical domain of cynomolgus CD71 (cynomolgus, UniProt A0A2K5X958 189-383); experiment: primary ELISA; note: test concentration or dose not given here
T1 construct: domain: apical domain; also called Cyno apical domain

[2] = molecular target: T2, human CD71 extracellular domain (human, UniProt P02786 89-760); experiment: primary ELISA; note: test concentration or dose not given here
T2 construct: also called hCD71; human CD71-ECD

[3] = molecular target: T1, apical domain of cynomolgus CD71; experiment: primary ELISA, signal ratio to HSA
[4] = molecular target: T2, human CD71 extracellular domain; experiment: primary ELISA, signal ratio to HSA

T1 sequence (A0A2K5X958 entry or part of it): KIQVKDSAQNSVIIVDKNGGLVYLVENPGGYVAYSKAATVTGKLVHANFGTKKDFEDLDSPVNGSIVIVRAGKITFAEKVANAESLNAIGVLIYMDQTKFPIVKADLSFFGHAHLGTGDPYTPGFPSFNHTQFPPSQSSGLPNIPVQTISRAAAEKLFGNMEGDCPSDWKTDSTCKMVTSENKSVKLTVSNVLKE
T2 sequence (P02786 89-760): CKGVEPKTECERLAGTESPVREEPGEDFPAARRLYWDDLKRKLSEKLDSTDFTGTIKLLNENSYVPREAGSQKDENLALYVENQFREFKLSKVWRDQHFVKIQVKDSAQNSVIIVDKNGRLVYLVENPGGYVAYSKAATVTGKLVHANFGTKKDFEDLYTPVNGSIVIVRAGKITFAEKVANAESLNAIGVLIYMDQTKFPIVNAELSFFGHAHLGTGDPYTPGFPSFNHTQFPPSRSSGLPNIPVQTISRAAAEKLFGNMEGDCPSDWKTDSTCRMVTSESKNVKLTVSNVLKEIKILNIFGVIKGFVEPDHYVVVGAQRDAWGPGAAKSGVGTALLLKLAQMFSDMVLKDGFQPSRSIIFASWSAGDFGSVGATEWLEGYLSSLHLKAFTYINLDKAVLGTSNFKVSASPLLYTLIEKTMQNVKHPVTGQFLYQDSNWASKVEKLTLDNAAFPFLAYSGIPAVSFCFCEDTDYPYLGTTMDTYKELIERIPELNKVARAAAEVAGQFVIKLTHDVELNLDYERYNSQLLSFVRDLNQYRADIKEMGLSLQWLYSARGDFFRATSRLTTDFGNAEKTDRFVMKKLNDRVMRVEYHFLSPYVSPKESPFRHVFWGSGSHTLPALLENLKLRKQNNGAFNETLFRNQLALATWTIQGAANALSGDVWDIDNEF

Row | Binder | RLU [1] [RLU] | RLU [2] [RLU] | Cyno apical domain:HSA [3] | hCD71:HSA [4]
1 | CD71-binding FN3 domain of SEQ ID NO: 133 (designed binder) MSLPAPKNLVVSRVTEDSARLSWTAPDAAFDSFKIKYAEYDRYGEAIALFVPGSERSYDLTGLKPGTEYFVHIDGVKGGTDSQPLVASFTT | 5.11e+06 | 1.83e+06 | 387 | 138
2 | CD71-binding FN3 domain of SEQ ID NO: 129 (designed binder) MGGSLPAPKNLVVSRVTEDSARLSWTAPDAAFDSFEIGYFENLYLGEAIVLTVPGSERSYDLTGLKPGTEYWVQIGGVKGGNWSAPLSAIFTT | 4.89e+06 | 2.49e+06 | 313 | 159
3 | CD71-binding FN3 domain of SEQ ID NO: 121 (designed binder) MSLPAPKNLVVSRVTEDSARLSWTAPDAAFDSFFIGYLEPQPPGEAITLYVPGSERSYDLTGLKPGTEYNVTIQGVKGGFPSAPLSAIFTT | 6.22e+06 | 5.42e+06 | 125 | 109
4 | CD71-binding FN3 domain of SEQ ID NO: 135 (designed binder) MSLPAPKNLVVSRVTEDSARLSWTAPDAAFDSFFIGYLEPQSPGEAIALYVPGSERSYDLTGLKPGTEYNVTIQGVKGGFPSEPLIANFTT | 6.07e+06 | 5.86e+06 | 232 | 224
5 | CD71-binding FN3 domain of SEQ ID NO: 137 (designed binder) MSLPAPKNLVVSRVTEDSARLSWTAPDAAFDSFFIGYLEPQPPGEAITLYVPGSERSYDLTGLKPGTEYNVTIQGVKGGFPSDPLVAHFTT | 5.96e+06 | 7.03e+06 | 218 | 257
6 | CD71-binding FN3 domain of SEQ ID NO: 138 (designed binder) MSLPAPKNLVVSRVTEDSARLSWTAPDAAFDSFFIGYLEPQPPGEVIHLFVPGSERSYDLTGLKPGTEYNVTIQGVKGGFPSMPLSAIFTT | 6.59e+06 | 5.91e+06 | 275 | 246
7 | CD71-binding FN3 domain of SEQ ID NO: 127 (designed binder) MSLPAPKNLVVSRVTEDSARLSWTAPDAAFDSFFIGYLEPQPPGEAITLLVPGSERSYDLTGLKPGTEYNVTIQGVKGGFPSGPLQASFTT | 6.52e+06 | 4.73e+06 | 259 | 188
8 | CD71-binding FN3 domain of SEQ ID NO: 153 (designed binder) MSLPAPKNLVVSRVTEDSARLSWTAPDAAFDSFYIAYAEPRPDGEAIVLAVPGSERSYDLTGLKPGTEYSVLIHGVKGGLLSSPLGADFTT | 4.11e+06 | 4.57e+06 | 127 | 141
9 | CD71-binding FN3 domain of SEQ ID NO: 125 (designed binder) MSLPAPKNLVVSRVTEDSARLSWTAPDAAFDSFYIAYAEPRPDGEAIILLVPGSERSYDLTGLKPGTEYSVLIHGVKGGLLSSPLHAHFTT | 5.09e+06 | 3.64e+06 | 153 | 109
10 | CD71-binding FN3 domain of SEQ ID NO: 165 (designed binder) MSLPAPKNLVVSRVTEDSARLSWTAPDAAFDSFYIAYAEPRPDGEAILLEVPGSERSYDLAGLKPGTEYSVLIHGVKGGLLSSPLGAEFTT | 3.62e+06 | 4.25e+06 | 259 | 305
11 | CD71-binding FN3 domain of SEQ ID NO: 123 (designed binder) MSLPAPKNLVVSRVTEDSARLSWTAPDAAFDSFAIRYWELRATGEAIPLSVPGSERSYDLTGLKPGTEYHVAISGVKGGKSSYPLRASFTT | 5.2e+06 | 4.51e+06 | 125 | 108
12 | CD71-binding FN3 domain of SEQ ID NO: 128 (designed binder) MSSLPAPKNLVVSRVTEDSARLSWTAPDAAFDSFEIGYFENLYLGEAIVLTVPGSERSYDLTGLKPGTEYWVQIGGVKGGNWSAPLSAIFTT | 5.56e+06 | 4.62e+06 | 259 | 215
13 | CD71-binding FN3 domain of SEQ ID NO: 185 (designed binder) MGSLPAPKNLVVSRVTEDSARLSWTAPDAAFDSFEISYWEHTFNGEAIILFVPGSERSYDLTGLKPGTEYWVQIGGVKGGNWSAPLSAIFTT | 4.08e+06 | 2.26e+06 | 267 | 148
14 | CD71-binding FN3 domain of SEQ ID NO: 136 (designed binder) MSLPAPKNLVVSRVTEDSARLSWTAPDAAFDSFEIDYVEFIFTGEAIGLIVPGSERSYDLTGLKPGTEYWVTIAGVKGGEWSTPLQAFLTT | 4.46e+06 | 4.08e+06 | 298 | 273
15 | CD71-binding FN3 domain of SEQ ID NO: 134 (designed binder) MSLPAPKNLVVSRVTEDSARLSWTAPDAAFDSFDINYWENESGGEAIALFVPGSERSYDLTGLKPGTEYLVTIAGVKGGWWSKPLYATFTT | 5.77e+06 | 4.52e+06 | 245 | 192
16 | CD71-binding FN3 domain of SEQ ID NO: 202 (designed binder) MSLPAPKNLVVSRVTEDSARLSWTAPDAAFDSFEIGYFENLYLGEAIVLTVPGSERSYDLTGLKPGTEYYVHIGGVKGGIWSSPLSAIFTT | 3.51e+06 | 1.11e+06 | 184 | 58
17 | CD71-binding FN3 domain of SEQ ID NO: 214 (designed binder) MSLPAPKNLVVSRVTEDSARLSWTAPDAAFDSFEIDYGEYSQAGEAIGLLVPGSERSYDLTGLKPGTEYWVQIGGVKGGNWSAPLSAIFTT | 4.2e+06 | 1.01e+06 | 148 | 36
18 | CD71-binding FN3 domain of SEQ ID NO: 207 (designed binder) MSLPAPKNLVVSRVTEDSARLSWTAPDAAFDSFEIGYWENAYKGEAIVLTVPGSERSYDLTGLKPGTEYVVFIGGVKGGVWSVPLSAISTT | 4.94e+06 | 3.58e+06 | 31 | 22
19 | CD71-binding FN3 domain of SEQ ID NO: 212 (designed binder) MSLPAPKNLVVSRVTEDSARLSWTAPDAAFDSFEIGYFENLYLGEAIVLTVPGSERYYDLTGLKPGTEYWVQIGGVKGGNWSAPLSAIFTT | 5.13e+06 | 2.82e+06 | 176 | 97
20 | CD71-binding FN3 domain of SEQ ID NO: 205 (designed binder) MSLPAPKNLVVSRVTEDSARLSWTAPDAAFDSFEIGYFENLYLGEAIHLFVPGSERSYDLTGLKPGTEYNVTIQGVKGGFPSEPLIANFTT | 4.1e+06 | 1.02e+06 | 213 | 53
21 | CD71-binding FN3 domain of SEQ ID NO: 216 (designed binder) MSLPAPKNLVVSRVTEDSARLSWTAPDAAFDSFEIAYFEQTYTGEAIVLTVPGSERSYDLTGLKPGTEYWVQIGGVKGGTWSAPLSAISTT | 5.04e+06 | 3.37e+06 | 119 | 80
22 | CD71-binding FN3 domain of SEQ ID NO: 209 (designed binder) MSLPAPKNLVVSRVTEDSARLSWTAPDAAFDSFEIAYFERTWFGEAIVLTVPGSERSYDLTGLKPGTEYWVQIGGVKGGDWSRPLSAIFTT | 5.07e+06 | 4.27e+06 | 423 | 356
23 | CD71-binding FN3 domain of SEQ ID NO: 217 (designed binder) MSLPAPKNLVVSRVTEDSARLSWTAPDAAFDSFEIAYFEQTYTGEAIVLTVPGSERSYDLTGLKPGTEYWVAIGGVKGGLWSLPLSAIFTT | 3.98e+06 | 2.33e+06 | 74 | 43
24 | CD71-binding FN3 domain of SEQ ID NO: 213 (designed binder) MSLPAPKNLVVSRVTEDSARLSWTAPDAAFDSFEIGYFENLYLGEAIVLTVPGSERSYDLTGLKPGTEYWVQIGGAKGGNWSAPLSAIFTT | 4.74e+06 | 2.46e+06 | 251 | 130
25 | CD71-binding FN3 domain of SEQ ID NO: 215 (designed binder) MSLPAPKNLVVSRVTEDSARLSWTAPDAAFDSLEIGYFENLYLGEAIVLTVPGSERSYDLTGLKPGTEYWVQIGGVKGGNWSAPLSAIFTT | 4.95e+06 | 3.34e+06 | 71 | 48
26 | CD71-binding FN3 domain of SEQ ID NO: 211 (designed binder) MSLPAPKNLVVSRVTEDSARLSWTAPDAAFDSFEIVYAEPVRFGEAIVLTVPGSERSYDLTGLKPGTEYWVQIGGVKGGEWSSLLSAIFTT | 4.67e+06 | 2.02e+06 | 177 | 76
27 | CD71-binding FN3 domain of SEQ ID NO: 203 (designed binder) MSLPAPKNLVVSRVTEDFARLSWTAPDAAFDSFEIAYWEQSYTGEAIVLTVPGSERSYDLTGLKPGTEYFVHIGGVKGGVWSTPLSAIFTT | 4.85e+06 | 2.25e+06 | 362 | 168
28 | CD71-binding FN3 domain of SEQ ID NO: 206 (designed binder) MSLPAPKNLVASRVTEDSARLSWTAPDAAFDSFEIGYFENLYLGEAIVLTVPGSERSYDLTGLKPGTEYWVQIGGVKGGNWSAPLSAIFTT | 5.33e+06 | 3.9e+06 | 67 | 49
29 | CD71-binding FN3 domain of SEQ ID NO: 208 (designed binder) MSLPAPKNLVVSRVTEDSARLSWTAPDAAFDSFFIGYFENLYLGEAIVLTVPGSERSYDLTGLKPGTEYWVQIGGVKGGNWSAPLSAIFTT | 5.45e+06 | 4.06e+06 | 19 | 142
